Measurements taken from PMC3098241, “Amyloid-Associated Nucleic Acid Hybridisation” (PLoS ONE, 2011).

Tests used:
[1] = target: the molecule itself; assay: X-ray fibre diffraction; dried aligned stalks from gels of peptide with salmon testis DNA or poly(A) RNA (5 mM (KL)5 + 5 mM DNA, pH 7, 150 mM NaCl; 16 mM (HL)5 + 10 mM poly(A) RNA pH 6; 1.6 mM TVQFHMH + 1.6 mM DNA pH 5.0; 16 mM TVQFHMH + 10 mM poly(A) RNA pH 6.0; 10 mM (KL)3 + 10 mM DNA; 5 mM (HL)3 + 5 mM DNA pH 6.2); cross-beta pattern as the sign of peptide self-assembly
[2] = target: the molecule itself; assay: circular dichroism + transmission electron microscopy; 0.8 mM STVIIE, 20 mM glycine pH 2.6, 20 C, spectra every 30 min for 24 h, without or with 242 nM 33mer DNA oligonucleotide (1:100 charge ratio); random coil to beta-sheet transition and fibrils

B1: TVQFHMH (peptide)
peptide: TVQFHMH
notes: source: synthetic peptide, bought: GL Biochem (PR China) or Peptide 2.0 (USA), 95% purity
binding result [1]: binds

B2: STVIIE (peptide)
peptide: STVIIE
notes: source: synthetic peptide, bought: Severn Biotech (UK), HPLC-purified
binding result [2]: binds
